Experimental data taken from patent US6870041B1, “MurE protein and gene of pseudomonas aeruginosa” (priority 1999, dated 2005).
Changes are numbered by the printed parent chain.

Legend:
P. aeruginosa MurE = target: T1, P. aeruginosa MurE (Pseudomonas aeruginosa, UniProt Q59650); assay: ATP-dependent MurE activity, pyruvate kinase/lactate dehydrogenase coupled enzyme assay (ADP formation); format: biochemical; conditions: recombinant MurE from P. aeruginosa; 25° C., pH 8.0; ADP formed per min per mg
T1 construct: 6xHis (pET-15b) (N); made in house; host or cells: E. coli BL21(DE3)/pLysS, plasmid pPaeMurE (pET-15b)
T1 sequence (Q59650 whole entry, looked up): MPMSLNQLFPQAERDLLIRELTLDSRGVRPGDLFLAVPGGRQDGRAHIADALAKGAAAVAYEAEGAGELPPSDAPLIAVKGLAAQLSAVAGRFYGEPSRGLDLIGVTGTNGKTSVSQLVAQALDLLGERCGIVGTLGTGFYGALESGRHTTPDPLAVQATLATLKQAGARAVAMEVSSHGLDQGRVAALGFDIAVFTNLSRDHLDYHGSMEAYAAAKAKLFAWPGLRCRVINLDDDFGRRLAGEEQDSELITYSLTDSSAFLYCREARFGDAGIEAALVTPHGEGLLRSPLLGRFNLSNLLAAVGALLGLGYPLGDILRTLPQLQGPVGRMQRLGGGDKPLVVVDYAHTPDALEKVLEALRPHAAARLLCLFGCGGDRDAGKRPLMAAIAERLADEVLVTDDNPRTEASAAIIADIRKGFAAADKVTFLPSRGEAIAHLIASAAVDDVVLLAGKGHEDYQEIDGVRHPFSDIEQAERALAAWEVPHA
Procedure: (§1) The ATP-dependent MurE activity was assayed by monitoring the formation of product ADP using the pyruvate kinase and lactate dehydrogenase coupled enzyme assay. The reaction was monitored spectrophotometrically.
(§2) Typically, the assay contained 100 mM BIS-TRIS-propane, pH 8.0, 200 μM NADH, 1 mM ATP, 20 mM PEP, 5 mM MgCl2, 1 mM DTT, 350 μM UDP-N-acetyl-muramyl-L-alanine-D-Glutamine, 1 mM m-Dap, 33 units/ml of pyruvate kinase and 1660 units/ml of lactate dehydrogenase in a final volume of 200 or 400 μl. The mixture was incubated at 25° C. for 5 min and the reaction initiated by the addition of 1-10 μg of MurE. These conditions are one example of an assay useful for evaluating the activity of MurE. Other assays can be used, or amounts of buffers, substrate and enzyme can be changed, as desired, to alter the rate of production of ADP.
(§3) ADP formation was monitored by the decrease in absorbance at 340 nm as a function of time using a MOLECULAR DEVICES SPECTRAMAXPLUS™ microtiterplate spectrophotomer (for 200 μl assays) or a HEWLETT-PACKARD HP8452A spectrophotometer equipped with a circulating water bath (for 400 μl assays). Rates were calculated from the linear portions of the progress curves using the extinction coefficient for NADH, e=6220 cm^−1 M-1. One unit of MurE activity is equal to 1 μmol of ADP formed per min at 25° C.

E. coli MurE = target: T2, E. coli MurE (Escherichia coli, UniProt P22188); assay: as above; format: biochemical; conditions: recombinant MurE from E. coli; 25° C., pH 8.0; ADP formed per min per mg
T2 sequence (P22188 whole entry, looked up): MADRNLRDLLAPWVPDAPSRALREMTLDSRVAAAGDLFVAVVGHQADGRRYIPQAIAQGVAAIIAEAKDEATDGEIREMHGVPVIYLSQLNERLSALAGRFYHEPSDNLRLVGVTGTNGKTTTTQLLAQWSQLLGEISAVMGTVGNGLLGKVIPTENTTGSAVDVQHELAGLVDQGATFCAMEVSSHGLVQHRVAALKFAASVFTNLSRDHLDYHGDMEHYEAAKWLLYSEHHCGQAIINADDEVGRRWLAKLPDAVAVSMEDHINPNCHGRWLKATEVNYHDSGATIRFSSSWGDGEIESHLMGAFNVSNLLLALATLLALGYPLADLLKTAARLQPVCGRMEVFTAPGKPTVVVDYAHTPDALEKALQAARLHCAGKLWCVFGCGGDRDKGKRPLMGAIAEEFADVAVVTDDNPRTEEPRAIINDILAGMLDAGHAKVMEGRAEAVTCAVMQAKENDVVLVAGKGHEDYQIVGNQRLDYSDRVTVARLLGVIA
Procedure: as §1, §2, §3

B1: UDP-N-acetylmuramoyl-L-alanyl-D-glutamate:meso-2,6-diaminopimelate ligase (protein, listed as Pseudomonas aeruginosa)
chain: T1 sequence (Q59650 whole entry, looked up) with N6S, R26H, G31V, A36T, R41H, A53T, A57T, G225D, D338G
modifications: His tag
Specific activities of recombinant MurE, P. aeruginosa (P. aeruginosa MurE): 3.31 µmol/min/mg | Specific activities of recombinant MurE, E. coli (E. coli MurE): 0.68 µmol/min/mg
